From PMC10397247

Assays:
P2-AA = molecular target: T1, P2-AA; assay: two-hybrid library CCmax; conditions: mean of both orientations;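 also: natural log of median RNA to DNA barcode read ratio; higher means stronger binding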
T1 chain: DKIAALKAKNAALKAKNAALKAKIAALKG

P2-AA-1HGe-T = molecular target: T2, P2-AA-1HGe-T; assay: two-hybrid library CCmax; conditions: mean of both orientations;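 also: natural log of median RNA to DNA barcode read ratio; higher means stronger binding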
T2 chain: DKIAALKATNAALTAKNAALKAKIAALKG

P2-AA-1HGe-M = molecular target: T3, P2-AA-1HGe-M; assay: two-hybrid library CCmax; conditions: mean of both orientations;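 also: natural log of median RNA to DNA barcode read ratio; higher means stronger binding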
T3 chain: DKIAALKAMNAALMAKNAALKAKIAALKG

P2-AA-1HGe-Q = molecular target: T4, P2-AA-1HGe-Q; assay: two-hybrid library CCmax; conditions: mean of both orientations;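 also: natural log of median RNA to DNA barcode read ratio; higher means stronger binding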
T4 chain: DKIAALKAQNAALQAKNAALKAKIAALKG

P2-AA-1HGe-D = molecular target: T5, P2-AA-1HGe-D; assay: two-hybrid library CCmax; conditions: mean of both orientations;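 also: natural log of median RNA to DNA barcode read ratio; higher means stronger binding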
T5 chain: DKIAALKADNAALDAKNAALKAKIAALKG

P2-AA-1HGe-A = molecular target: T6, P2-AA-1HGe-A; assay: two-hybrid library CCmax; conditions: mean of both orientations;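 also: natural log of median RNA to DNA barcode read ratio; higher means stronger binding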
T6 chain: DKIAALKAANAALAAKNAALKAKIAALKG

4H3922-AA = molecular target: T7, 4H3922-AA; assay: two-hybrid library CCmax; conditions: mean of both orientations
T7 chain: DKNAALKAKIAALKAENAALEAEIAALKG

4H2614-AA = molecular target: T8, 4H2614-AA; assay: two-hybrid library CCmax
T8 chain: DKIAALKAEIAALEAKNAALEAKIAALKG

4H3664-AA = molecular target: T9, 4H3664-AA; assay: two-hybrid library CCmax; conditions: mean of both orientations
T9 chain: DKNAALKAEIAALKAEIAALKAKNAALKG

4H3605-AA = molecular target: T10, 4H3605-AA; assay: two-hybrid library CCmax; conditions: mean of both orientations
T10 chain: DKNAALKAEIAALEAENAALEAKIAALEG

4H2935-AA = molecular target: T11, 4H2935-AA; assay: two-hybrid library CCmax; conditions: mean of both orientations
T11 chain: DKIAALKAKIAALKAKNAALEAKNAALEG

4H2726-AA = molecular target: T12, 4H2726-AA; assay: two-hybrid library CCmax; conditions: mean of both orientations
T12 chain: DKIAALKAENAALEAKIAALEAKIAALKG

4H662-AA = molecular target: T13, 4H662-AA; assay: two-hybrid library CCmax; conditions: mean of both orientations
T13 chain: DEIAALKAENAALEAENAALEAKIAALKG

4H55-AA = molecular target: T14, 4H55-AA; assay: two-hybrid library CCmax; conditions: mean of both orientations
T14 chain: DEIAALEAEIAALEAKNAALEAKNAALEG

4H481-AA = molecular target: T15, 4H481-AA; assay: two-hybrid library CCmax; conditions: mean of both orientations
T15 chain: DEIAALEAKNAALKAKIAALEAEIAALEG

4H327-AA = molecular target: T16, 4H327-AA; assay: two-hybrid library CCmax; conditions: mean of both orientations
T16 chain: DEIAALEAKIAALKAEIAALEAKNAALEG

4H4033-AA = molecular target: T17, 4H4033-AA; assay: two-hybrid library CCmax; conditions: mean of both orientations
T17 chain: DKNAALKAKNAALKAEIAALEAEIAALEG

4H369-AA = molecular target: T18, 4H369-AA; assay: two-hybrid library CCmax; conditions: mean of both orientations
T18 chain: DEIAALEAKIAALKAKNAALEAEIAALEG

4H3625-AA = molecular target: T19, 4H3625-AA; assay: two-hybrid library CCmax; conditions: mean of both orientations
T19 chain: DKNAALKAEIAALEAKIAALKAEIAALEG

4H56-bA = molecular target: T20, 4H56-bA; assay: two-hybrid library CCNG1
T20 chain: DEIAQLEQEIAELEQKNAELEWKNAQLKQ

4H3041-bA = molecular target: T21, 4H3041-bA; assay: two-hybrid library CCNG1
T21 chain: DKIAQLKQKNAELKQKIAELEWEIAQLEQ

4H949-bA = molecular target: T22, 4H949-bA; assay: two-hybrid library CCNG1
T22 chain: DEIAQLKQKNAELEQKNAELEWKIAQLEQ

4H3364-bA = molecular target: T23, 4H3364-bA; assay: two-hybrid library CCNG1
T23 chain: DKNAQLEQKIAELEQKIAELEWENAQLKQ

4H2931-bA = molecular target: T24, 4H2931-bA; assay: two-hybrid library CCNG1
T24 chain: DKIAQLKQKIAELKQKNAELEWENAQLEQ

4H2859-bA = molecular target: T25, 4H2859-bA; assay: two-hybrid library CCNG1
T25 chain: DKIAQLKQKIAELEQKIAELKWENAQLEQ

4H796-bA = molecular target: T26, 4H796-bA; assay: two-hybrid library CCNG1
T26 chain: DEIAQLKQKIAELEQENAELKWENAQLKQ

4H3381-bA = molecular target: T27, 4H3381-bA; assay: two-hybrid library CCNG1
T27 chain: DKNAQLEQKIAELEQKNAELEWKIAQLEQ

4H730-bA = molecular target: T28, 4H730-bA; assay: two-hybrid library CCNG1
T28 chain: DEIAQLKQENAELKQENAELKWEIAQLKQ

4H3297-bA = molecular target: T29, 4H3297-bA; assay: two-hybrid library CCNG1
T29 chain: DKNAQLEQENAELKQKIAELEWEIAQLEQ

4H932-bA = molecular target: T30, 4H932-bA; assay: two-hybrid library CCNG1
T30 chain: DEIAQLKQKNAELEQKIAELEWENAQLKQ

4H349-bA = molecular target: T31, 4H349-bA; assay: two-hybrid library CCNG1
T31 chain: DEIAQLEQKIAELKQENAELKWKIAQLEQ

DEIAALEATNAALTAENAALEAEIAALEG [P1-AA-1HGe-T]
interaction score (P2-AA): 2.07
interaction score (P2-AA-1HGe-T): 2
interaction score (P2-AA-1HGe-M): 1.53
interaction score (P2-AA-1HGe-Q): 2.05
interaction score (P2-AA-1HGe-D): 1.17
interaction score (P2-AA-1HGe-A): 2.18

DKIAALKAEIAALEAKNAALEAKIAALKG [4H2614-AA]
interaction score (4H3922-AA): 0.659
interaction score (4H2614-AA): 1.46
interaction score (4H3664-AA): -1.11
interaction score (4H3605-AA): -0.49
interaction score (4H2935-AA): 0.084
interaction score (4H2726-AA): -0.336
interaction score (4H662-AA): -1.17
interaction score (4H55-AA): -0.185
interaction score (4H481-AA): 1.06
interaction score (4H327-AA): -0.0398
interaction score (4H4033-AA): -1.43
interaction score (4H369-AA): 2.41
interaction score (4H3625-AA): 0.314

DKIAQLKQKIAELEQKIAELKWENAQLEQ [4H2859-bA]
interaction score (4H56-bA): 0.529
interaction score (4H3041-bA): 0.532
interaction score (4H949-bA): -1.6
interaction score (4H3364-bA): 0.621
interaction score (4H2931-bA): -0.145
interaction score (4H2859-bA): 0.951
interaction score (4H796-bA): -0.855
interaction score (4H3381-bA): -1.02
interaction score (4H730-bA): -1.15
interaction score (4H3297-bA): -0.389
interaction score (4H932-bA): -0.912
interaction score (4H349-bA): -1.25

DEIAALEAQNAALQAENAALEAEIAALEG [P1-AA-1HGe-Q]
interaction score (P2-AA): 1.75
interaction score (P2-AA-1HGe-T): 2.21
interaction score (P2-AA-1HGe-M): 2.05
interaction score (P2-AA-1HGe-Q): 2.11
interaction score (P2-AA-1HGe-D): 1.67
interaction score (P2-AA-1HGe-A): 2.14
